Laboratory results taken from patent US20260199463A1 (published 2026).

B1: NEC_M_46 (VHH)
VHH: EVQLLESGGGLVQPGGSLRLSCAASGYTFSDYAMGWYRQAPGKERELVSSISGSGGSTRYADSVKGRFTISRDNSKNTLYLQMNSLKPEDTAVYYCAAVIRQPSTGFYEYWGQGTQVTVSS
B2: NEC_M_8 (VHH)
VHH: EVQLLESGGGLVQPGGSLRLSCAASGFTFSSYAMGWYRQAPGKEREFVSSISGSGGLTRYADSVKGRFTISRDNSKNTLYLQMNSLKPEDTAVYYCAVTTGYQGGVYDYWGQGTQVTVSS
B3: NEC_S_31 (VHH)
VHH: EVQLLESGGGLVQPGGSLRLSCAASGFTYSSYAMGWYRQAPGKERELVSSISGSGGSTRYADSVKGRFTISRDNSKNTLYLQMNSLKPEDTAVYYCAVAIGVGDYWGQGTQVTVSS
B4: NEC_S_11 (VHH)
VHH: EVQLLESGGGLVQPGGSLRLSCAASGLTSSGYAMGWYRQAPGKERELVSSISSSGGLTHYADSVKGRFTISRDNSKNTLYLQMNSLKPEDTAVYYCDADIAYTGADYWGQGTQVTVSS
B5: NEC_M_17 (VHH)
VHH: EVQLLESGGGLVQPGGSLRLSCAASGFTYSGYAMGWYRQAPGKERELVSSISGSGTLTSYADSVKGRFTISRDNSKNTLYLQMNSLKPEDTAVYYCDVDIPVGDATTVGDYWGQGTQVTVSS
B6: NEC_S_55 (VHH)
VHH: EVQLLESGGGLVQPGGSLRLSCAASGFTLSSYAMGWYRQAPGKERELVSSISGSGGSTRYADSVKGRFTISRDNSKNTLYLQMNSLKPEDTAVYYCAAYIGGDYLGQGTQVTVSS
B7: NEC_M_5 (VHH)
VHH: EVQLLESGGGLVQPGGSLRLSCAASGLSFSSYSMGWYRQAPGKEREFVSAISGSSGSTNYADSVKGRFTISRDNSKNTLYLQMNSLKPEDTAVYYCAAEHRVTTSGVFYDYWGQGTQVTVSS
B8: NEC_M_44 (VHH)
VHH: EVQLLESGGGLVQPGGSLRLSCAASGRTLSSYAMGWYRQAPGKERELVSSISGSGGSTRYADSVKGRFTISRDNSKNTLYLQMNSLKPEDTAVYYCAVYILELAPGAEYWGQGTQVTVSS

Molecular target: msNec4

Compared with B1, B2 is 3.4-fold higher in Kd: 14 nM for the first, 47 nM for the second.

Compared with B3, B4 is 3.8-fold higher in Kd: 10 nM for the first, 38 nM for the second.

Compared with B5, B6 is 2.5-fold higher in Kd: 11 nM for the first, 28 nM for the second.

Going from B7 to B8, the Kd falls from 8060 nM to 27 nM (300-fold). The second binds more tightly here.

Molecular target: huNec4

Compared with B1, B2 is 6.4-fold higher in Kd: 19 nM for the first, 122 nM for the second.

Going from B3 to B4, the Kd rises from 84 nM to 302 nM (3.6-fold).

Going from B5 to B6, the Kd rises from 10 nM to 81 nM (8.1-fold).

B7 and B8 are within 1.5-fold of each other in Kd: 28 nM for the first, 33 nM for the second.
